Reference: patent publication US20230329245A1, “COMPOSITIONS AND METHODS OF USE THEREOF” (Curie Co. Inc., priority 2020, published 2023)
Where “and” joins values, the source holds several entries; their conditions need not be identical. Identical values can stand only once.

How the values were obtained:
Type in all cases: cell-based
[1] = system: B. subtilis BGSC 1A1276; assay: Growth reduction of B. subtilis culture (OD600 / BacTiter-Glo)
Protocol: For MIC determination of bacterial cultures, E. coli ATCC 8739, DH5-alpha, DH10-beta, and B. subtilis BGSC 1A1276 was grown overnight (16-18 hours) in LB broth at 37° C. The following day, the cell density of the saturated cultures was calculated using OD600 and cultures were diluted to 10^4 to 10^6 CFU/mL in sterile LB media to generate the inoculum, and 90 μL of the inoculum was combined with 10 μL of serially diluted Tgase SEQ ID NO:1 at a range of 0.0001-0.01 weight percent in the presence or absence of 0.003% lysozyme (100-fold lower than the effective concentration). Growth curves were measured by OD600 on a BioTek® Synergy Plate Reader. Optionally, the following day, a cell viability assay such as BacTiter-Glo™ (Promega®) following manufacturer's protocols) could be used to assess cell viability. A decrease in OD600 or luminescence indicated a decrease in cell viability. Results are presented as a percent reduction in cell count relative to an untreated culture. All test conditions were performed in triplicate.
(§1) Yeast or bacterial starter cultures were grown as described previously. Tgase (SEQ ID NO:6) was added to each culture at 0.001-1 weight percent. The cultures were grown overnight at 30° C.-37° C. and growth curves were measured by a BioTek® Synergy Plate Reader.

[2] = system: C. albicans ATCC 10231; assay: Growth reduction of C. albicans culture (OD600 / BacTiter-Glo); conditions: C. albicans ATCC 10231
Protocol: For MIC determination of yeast cultures, C. albicans ATCC 10231 was grown overnight (24 hours) in YPD media at 30° C. The following day, the cell density of the saturated cultures was calculated using OD600 and cultures were diluted to 10^4 to 10^6 CFU/mL in sterile YPD media to generate the inoculum, and 90 μL of the inoculum was combined with 10 μL of serially diluted Tgase SEQ ID NO:1 at a range of 0.0001-0.01 weight percent. The cultures were grown overnight at 30° C. and growth curves were measured by OD600 on a BioTek® Synergy Plate Reader. Optionally, the following day, a cell viability assay such as BacTiter-Glo™ (Promega®) following manufacturer's protocols) could be used to assess cell viability. A decrease in OD600 or luminescence indicated a decrease in cell viability. Results are presented as a percent reduction in cell count relative to an untreated culture. All test conditions were performed in triplicate.
as §1

[3] = system: P. aeruginosa ATCC 9027; assay: MIC determination, P. aeruginosa; conditions: CAMHB pH 7.3, 37° C., 18 to 20 hours, duplicate
Protocol: (§2) A variant form of Streptomyces mobaraensis transglutaminase having the amino acid sequence depicted in SEQ ID NO:6 was prepared by literature methods with a hexa-his-tag to aid in purification (Javitt, et al. (2017) BMC Biotechnol. 17:23). The cells were grown in shake flasks, lysed by homogenization, and the Tgase variant (SEQ ID NO:6) was isolated from the cell debris by centrifugation. The resulting semi-purified enzyme (clarified lysate) were compared on an SDS-PAGE gel, by spectroscopy, and activity for concentration of active enzyme. The Tgase variant (SEQ ID NO:6) was further purified by affinity column on a Ni-IMAC resin prior to MIC assay. Tgase activity was measured in the examples herein using a colorimetric hydroxamate activity assay (Folk and Cole (1965) J Biol Chemistry 240(7):2951-2960). The enzyme was diluted to a working stock concentration of 2 mg/mL in CAMHB or RPMI media (bacterial or fungal media). This was then 2-fold serial diluted ten times in the appropriate media in a 96-well master plate to generate 2× starting concentrations for MIC testing.
(§3) Strains were acquired from the American Type Culture Collection (ATCC) (Manassas, VA) and maintained as −80° C. frozen glycerol stocks: S. aureus ATCC 6538, E. coli ATCC 8739, P. aeruginosa ATCC 9027, C. albicans ATCC 10231, and A. brasiliensis ATCC 16404. B. subtilis BGSC 1A1276 was purchased from the Bacillus Genetic Stock Center (BGSC) (Columbus, OH) and maintained as −80° C. frozen glycerol stock. Cation-adjusted Mueller-Hinton broth (CAMHB) at pH 7.3 was used for testing with bacterial species (unless otherwise noted), while RPMI 1640 media buffered with 0.165 M MOPS at pH 7.0 was used for testing with all fungal species.
For MIC determination, bacterial strains (S. aureus ATCC 6538, E. coli ATCC 8739, P. aeruginosa ATCC 9027) were grown overnight on Tryptic Soy Agar (TSA) plates at 37° C. A few colonies of each strain were collected with a sterile swab and used to make a McFarland 0.5 standard solution (approximately 1×10^8 CFU/mL) in sterile PBS. […]

[4] = system: E. coli ATCC 8739; assay: MIC determination, E. coli; conditions: CAMHB pH 7.3, 37° C., 18 to 20 hours, duplicate
Protocol: as §2, §3
For MIC determination, bacterial strains (S. aureus ATCC 6538, E. coli ATCC 8739, P. aeruginosa ATCC 9027) were grown overnight on Tryptic Soy Agar (TSA) plates at 37° C. A few colonies of each strain were collected with a sterile swab and used to make a McFarland 0.5 standard solution (approximately 1×10^8 CFU/mL) in sterile PBS. The McFarland solution was then diluted 1:100 in CAMHB to generate the inoculum, and 50 μL of this inoculum was combined with 50 μL of the 2× test article in a 96-well plate for a final concentration of 1×. All test conditions were performed in duplicate. The bacterial-strain MIC 96-well plates were incubated at 37° C. for 18 to 20 hours. MIC is defined as the lowest concentration of a compound in which no visible growth is observed.

[5] = system: A. brasiliensis ATCC 16404; assay: MIC determination, A. brasiliensis; conditions: RPMI 1640 pH 7.0, 25° C., up to 7 days, duplicate
Protocol: as §2, with “testing. […]” for “testing.”
C. albicans MIC 96-well plate was incubated for 37° C. for 24 to 48 hours. […] After incubation, all 96-well plates were examined visually and on a spectrophotometer at absorbance OD650. […]

[6] = system: B. subtilis BGSC 1A1276; assay: MIC determination, B. subtilis; conditions: duplicate, listed as Tgase variant (SEQ ID NO: 6)
Protocol: as §2
Strains were acquired from the American Type Culture Collection (ATCC) (Manassas, VA) and maintained as −80° C. frozen glycerol stocks: S. aureus ATCC 6538, E. coli ATCC 8739, P. aeruginosa ATCC 9027, C. albicans ATCC 10231, and A. brasiliensis ATCC 16404. […]

B1: Tgase (SEQ ID NO: 6): variant Streptomyces mobaraensis transglutaminase (SEQ ID NO:2) with N-terminal Methionine, C-terminal peptide linker and hexa-His-Tag (protein)
chain: MDPDDRVTPPAEPLDRMPDPYRPSYGRAETVVNNYIRKWQQVYSHRDGRKQQMTEEQREWLSYGCVGVTWVNSGQYPTNRLAFASFDEDRFKNELKNGRPRSGETRAEFEGRVAKESFDEEKGFQRAREVASVMNRALENAHDESAYLDNLKKELANGNDALRNEDARSPFYSALRNTPSFKERNGGNHDPSRMKAVIYSKHFWSGQDRSSSADKRKYGDPDAFRPAPGTGLVDMSRDRNIPRSPTSPGEGFVNFDYGWFGAQTEADADKTVWTHGNHYHAPNGSLGAMHVYESKFRNWSEGYSDFDRGAYVITFIPKSWNTAPDKVKQGWPLEHHHHHH
Q: With B1 as the molecule, how does the “Fold improvement in enzyme efficacy” value ([1]; Tgase (SEQ ID NO: 1) alone = 1) read?
A: 12

Q: What about the “Percent Growth Reduction” value ([1]; enzyme concentration 80 ug/mL) of the same molecule?
A: 99.77%

Q: And the “Fold improvement in enzyme efficacy” value ([2]; Tgase (SEQ ID NO: 1) = 1)?
A: 10

Q: What about the “Percent Growth Reduction” value ([2]; enzyme concentration 80 ug/mL) of the same molecule?
A: 99.95%

Q: What about the MIC [3] of the same molecule?
A: >1,000 μg/mL

Q: And the MIC [4]?
A: >1,000 μg/mL

Q: What about the MIC [5] of the same molecule?
A: 62.5 µg/mL

Q: And the MIC [6]?
A: 80 µg/mL and 120 µg/mL
